Laboratory results published in publication PMC4183432, “Evidence of a Bacterial Receptor for Lysozyme: Binding of Lysozyme to the Anti-σ Factor RsiV Controls Activation of the ECF σ Factor σ^V” (PLoS Genetics, 2014).

Target: T1, GST-RsiV^59–285 (B. subtilis, UniProt O05403 59-285)
T1 construct: plasmid pKBW204 (pDEST15); source: E. coli BL21(DE3), purified (Glutathione HiCap Matrix); not shown: GST, N-terminal, kept
T1 sequence (looked up): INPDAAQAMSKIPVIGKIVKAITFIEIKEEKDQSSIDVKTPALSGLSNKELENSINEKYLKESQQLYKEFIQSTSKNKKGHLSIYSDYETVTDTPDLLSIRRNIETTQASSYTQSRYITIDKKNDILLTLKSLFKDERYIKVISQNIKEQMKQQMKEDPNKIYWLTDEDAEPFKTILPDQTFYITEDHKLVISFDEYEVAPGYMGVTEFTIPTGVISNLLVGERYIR
Test: pull-down; 2 mg purified GST-RsiV^59–285 on a Glutathione HiCap Matrix column in PBS-EW; 2 mg of HEW lysozyme, human lysozyme or mutanolysin applied; washed with PBS-EW, eluted with TNGT; SDS-PAGE
Conditions: both partners purified

B1: human lysozyme (enzyme, UniProt P61626 19-148, looked up)
chain: KVFERCELARTLKRLGMDGYRGISLANWMCLAKWESGYNTRATNYNAGDRSTDYGIFQINSRYWCNDGKTPGAVNACHLSCSALLQDNIADAVACAKRVVRDPQGIRAWVAWRNRCQNRDVRQYVQGCGV
notes: Human lysozyme, a C-type lysozyme (58% identity to HEW lysozyme); also called HUM lysozyme
  binding result: binds
